Results on 10 molecules are retold here after patent US20120201781A1 (AbbVie / Abbott, published 2012).

Experiment [1] addresses T1, recombinant human IL-1α (human, UniProt P01583 113-271).
T1 construct: Purified recombinant protein bought from R&D Systems; also called hIL-1α; rhIL-1α
T1 sequence: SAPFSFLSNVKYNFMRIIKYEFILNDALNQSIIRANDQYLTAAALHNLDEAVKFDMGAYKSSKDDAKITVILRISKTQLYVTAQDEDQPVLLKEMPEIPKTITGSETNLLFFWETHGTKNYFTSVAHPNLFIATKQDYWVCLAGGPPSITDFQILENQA
Description: SPR (Biacore).

The target in experiment [2] is T2, recombinant human IL-1β (human, UniProt P01584 117-269).
T2 construct: Recombinant protein; also called hIL-1β; rhIL-1β
Description: SPR (Biacore).

For experiment [3], the target named is T1, recombinant human IL-1α. Briefly: cell-based or functional assay.
The target of experiment [4] is T2, recombinant human IL-1β. Description: cell-based or functional assay.
The target in experiment [5] is T2, recombinant human IL-1β. Description: cell-based or functional assay. The source holds these as a separate data set.
Experiment [6] deals with T2, recombinant human IL-1β. Description: SPR (Biacore), mAb captured via goat anti-mouse IgG.

B1: hIL-1α/β DVD6b-Ig (bispecific antibody, human IgG1, kappa)
heavy: not shown
light: QIVLTQSPAIMSASPGEKVTITCSASSSVSYMHWFQQKPGASPKLWIYSTSNLASGVPARFSGSGSGTSYSLTVSRMEAEDAATYYCQQRSTYPYTFGGGTKLEIKRTVAAPSVFIFPPQIVLTQSPALMSASPGEKVTMTCSASSSVNYMYWYQQKPRSSPKPWIYLTSNLASGVPARFSGSGSGTSYSLTISSMEAEDAATYYCQQWNSNPYTFGGGTKLEMKRRTVAAPSVFIFPPSDEQLKSGTASVVCLLNNFYPREAKVQWKVDNALQSGNSQESVTEQDSKDSTYSLSSTLTLSKADYEKHKVYACEVTHQGLSSPVTKSFNRGEC
notes: 6B12.4F6 (outer) - long linker - 6H3.1A4.3E11 (inner), b-a-C orientation
For B1, the Kd in the experiment with recombinant human IL-1α [1] was 820 pM; with recombinant human IL-1β [2] it was 697 pM. Besides, the “Potency (IC50) M, MRC-5 bioassay” value with recombinant human IL-1α [3] is 1000 pM; with recombinant human IL-1β [4] it was 750 pM.

B2: murine monoclonal antibody 6B12.4F6 (antibody, V domains shown)
VH: EVQLQQSGPELVKTGTSVKISCKASGYSFTGYYMHWVRQSHGKSLEWIGYISCYNGFTSYNPKFKGKATFTVDTSSSTAYIQFSRLTSEDSAVYYCARSDYYGTNDYWGQGTTLTVSS
VL: QIVLTQSPAIMSASPGEKVTITCSASSSVSYMHWFQQKPGASPKLWIYSTSNLASGVPARFSGSGSGTSYSLTVSRMEAEDAATYYCQQRSTYPYTFGGGTKLEIKR
notes: Murine hybridoma mAb, anti-hIL-1β
For the molecule B2, in the experiment with recombinant human IL-1β [5], the “IC50 (M), MRC-5 bioassay (inhibition of IL-8 production)” value came out at 3.2e-10 M. In addition, the Kd with recombinant human IL-1β [6] and with recombinant human IL-1β [2] was 554 pM throughout. In the experiment with recombinant human IL-1β [4], the “IC50 (M), MRC-5 bioassay” value worked out at 4e-10 M.

B3: hIL-1α/β DVD4a-Ig (bispecific antibody, human IgG1, kappa)
heavy: not shown
light: DIVMTQSQRFMSTSVGDRVSVTCKASQNVGTNIAWYQQKPGQSPRALIYSASYRYSGVPDRFTGSGSGTDFTLTISNVQSVDLAEYFCQQYTRYPLTFGGGTKLEIKRTVAAPSVFIFPPETTVTQSPASLSMAIGEKVTIRCITSTDIDVDMNWYQQKPGEPPKLLISQGNTLRPGVPSRFSSSGSGTDFVFIIENMLSEDVADYYCLQSDNLPLTFGAGTKLELKRTVAAPSVFIFPPSDEQLKSGTASVVCLLNNFYPREAKVQWKVDNALQSGNSQESVTEQDSKDSTYSLSSTLTLSKADYEKHKVYACEVTHQGLSSPVTKSFNRGEC
notes: 18F4.2C8 (outer) - long linker - 1B12.4H4 (inner), a-b-C orientation
With B3, the results for the dissociation constant (Kd) with recombinant human IL-1α [1] and with recombinant human IL-1β [2] were 701 pM and 930 pM, respectively. Also, the “Potency (IC50) M, MRC-5 bioassay” value with recombinant human IL-1α [3] is 350 pM; in the experiment with recombinant human IL-1β [4] it was 10000 pM.

B4: hIL-1α/β DVD4b-Ig (bispecific antibody, human IgG1, kappa)
heavy: not shown
light: ETTVTQSPASLSMAIGEKVTIRCITSTDIDVDMNWYQQKPGEPPKLLISQGNTLRPGVPSRFSSSGSGTDFVFIIENMLSEDVADYYCLQSDNLPLTFGAGTKLELKRTVAAPSVFIFPPDIVMTQSQRFMSTSVGDRVSVTCKASQNVGTNIAWYQQKPGQSPRALIYSASYRYSGVPDRFTGSGSGTDFTLTISNVQSVDLAEYFCQQYTRYPLTFGGGTKLEIKRTVAAPSVFIFPPSDEQLKSGTASVVCLLNNFYPREAKVQWKVDNALQSGNSQESVTEQDSKDSTYSLSSTLTLSKADYEKHKVYACEVTHQGLSSPVTKSFNRGEC
notes: 1B12.4H4 (outer) - long linker - 18F4.2C8 (inner), b-a-C orientation
As to B4, the figures for the dissociation constant (Kd) with recombinant human IL-1α [1] and in the experiment with recombinant human IL-1β [2] were 560 pM and 128 pM, respectively. Further, the “Potency (IC50) M, MRC-5 bioassay” value with recombinant human IL-1α [3] came to 350 pM; with recombinant human IL-1β [4], 500 pM.

B5: hIL-1α/β DVD3b-Ig (bispecific antibody, human IgG1, kappa)
heavy: not shown
light: ETTVTQSPASLSMAIGEKVTIRCITSTDIDVDMNWYQQKPGEPPKLLISQGNTLRPGVPSRFSSSGSGTDFVFIIENMLSEDVADYYCLQSDNLPLTFGAGTKLELKRTVAAPDIVMTQSQRFMSTSVGDRVSVTCKASQNVGTNIAWYQQKPGQSPRALIYSASYRYSGVPDRFTGSGSGTDFTLTISNVQSVDLAEYFCQQYTRYPLTFGGGTKLEIKRTVAAPSVFIFPPSDEQLKSGTASVVCLLNNFYPREAKVQWKVDNALQSGNSQESVTEQDSKDSTYSLSSTLTLSKADYEKHKVYACEVTHQGLSSPVTKSFNRGEC
notes: 1B12.4H4 (outer) - short linker - 18F4.2C8 (inner), b-a-C orientation
In the case of B5, the Kd amounted to 1240 pM with recombinant human IL-1α [1] and 190 pM with recombinant human IL-1β [2]. The results for the “Potency (IC50) M, MRC-5 bioassay” value with recombinant human IL-1α [3] and with recombinant human IL-1β [4] were 700 pM and 400 pM, respectively.

B6: hIL-1α/β DVD5a-Ig (bispecific antibody, human IgG1, kappa)
heavy: not shown
light: QIVLTQSPALMSASPGEKVTMTCSASSSVNYMYWYQQKPRSSPKPWIYLTSNLASGVPARFSGSGSGTSYSLTISSMEAEDAATYYCQQWNSNPYTFGGGTKLEMKRTVAAPQIVLTQSPAIMSASPGEKVTITCSASSSVSYMHWFQQKPGASPKLWIYSTSNLASGVPARFSGSGSGTSYSLTVSRMEAEDAATYYCQQRSTYPYTFGGGTKLEIKRTVAAPSVFIFPPSDEQLKSGTASVVCLLNNFYPREAKVQWKVDNALQSGNSQESVTEQDSKDSTYSLSSTLTLSKADYEKHKVYACEVTHQGLSSPVTKSFNRGEC
notes: 6H3.1A4.3E11 (outer) - short linker - 6B12.4F6 (inner), a-b-C orientation
Consider B6, for which the dissociation constant (Kd) with recombinant human IL-1α [1] was determined as 508 pM; in the experiment with recombinant human IL-1β [2], 12500 pM. Also, the “Potency (IC50) M, MRC-5 bioassay” value in the experiment with recombinant human IL-1α [3] was 2600 pM; in the experiment with recombinant human IL-1β [4] it was 19000 pM.

B7: hIL-1α/β DVD6a-Ig (bispecific antibody, human IgG1, kappa)
heavy: not shown
light: QIVLTQSPALMSASPGEKVTMTCSASSSVNYMYWYQQKPRSSPKPWIYLTSNLASGVPARFSGSGSGTSYSLTISSMEAEDAATYYCQQWNSNPYTFGGGTKLEMKRTVAAPSVFIFPPQIVLTQSPAIMSASPGEKVTITCSASSSVSYMHWFQQKPGASPKLWIYSTSNLASGVPARFSGSGSGTSYSLTVSRMEAEDAATYYCQQRSTYPYTFGGGTKLEIKRRTVAAPSVFIFPPSDEQLKSGTASVVCLLNNFYPREAKVQWKVDNALQSGNSQESVTEQDSKDSTYSLSSTLTLSKADYEKHKVYACEVTHQGLSSPVTKSFNRGEC
notes: 6H3.1A4.3E11 (outer) - long linker - 6B12.4F6 (inner), a-b-C orientation
Turning to B7, the values for the dissociation constant (Kd) in the experiment with recombinant human IL-1α [1] and with recombinant human IL-1β [2] were 1060 pM and 2090 pM, respectively. Also, the “Potency (IC50) M, MRC-5 bioassay” value worked out at 2300 pM with recombinant human IL-1α [3] and 70000 pM with recombinant human IL-1β [4].

B8: hIL-1α/β DVD5b-Ig (bispecific antibody, human IgG1, kappa)
heavy: not shown
light: QIVLTQSPAIMSASPGEKVTITCSASSSVSYMHWFQQKPGASPKLWIYSTSNLASGVPARFSGSGSGTSYSLTVSRMEAEDAATYYCQQRSTYPYTFGGGTKLEIKRTVAAPQIVLTQSPALMSASPGEKVTMTCSASSSVNYMYWYQQKPRSSPKPWIYLTSNLASGVPARFSGSGSGTSYSLTISSMEAEDAATYYCQQWNSNPYTFGGGTKLEMKRTVAAPSVFIFPPSDEQLKSGTASVVCLLNNFYPREAKVQWKVDNALQSGNSQESVTEQDSKDSTYSLSSTLTLSKADYEKHKVYACEVTHQGLSSPVTKSFNRGEC
notes: 6B12.4F6 (outer) - short linker - 6H3.1A4.3E11 (inner), b-a-C orientation
For B8, the Kd in the experiment with recombinant human IL-1α [1] stood at 13200 pM; with recombinant human IL-1β [2] it was 671 pM. Also, the “Potency (IC50) M, MRC-5 bioassay” value with recombinant human IL-1α [3] came out at 3300 pM; in the experiment with recombinant human IL-1β [4], 250 pM.

B9: hIL-1α/β DVD3a-Ig (bispecific antibody, human IgG1, kappa)
heavy: not shown
light: DIVMTQSQRFMSTSVGDRVSVTCKASQNVGTNIAWYQQKPGQSPRALIYSASYRYSGVPDRFTGSGSGTDFTLTISNVQSVDLAEYFCQQYTRYPLTFGGGTKLEIKRTVAAPETTVTQSPASLSMAIGEKVTIRCITSTDIDVDMNWYQQKPGEPPKLLISQGNTLRPGVPSRFSSSGSGTDFVFIIENMLSEDVADYYCLQSDNLPLTFGAGTKLELKRRTVAAPSVFIFPPSDEQLKSGTASVVCLLNNFYPREAKVQWKVDNALQSGNSQESVTEQDSKDSTYSLSSTLTLSKADYEKHKVYACEVTHQGLSSPVTKSFNRGEC
notes: 18F4.2C8 (outer) - short linker - 1B12.4H4 (inner), a-b-C orientation
For B9, the Kd in the experiment with recombinant human IL-1α [1] was found to be 837 pM; with recombinant human IL-1β [2], 63700 pM. In the experiment with recombinant human IL-1α [3], the “Potency (IC50) M, MRC-5 bioassay” value was 750 pM.

B10: murine monoclonal antibody 1B12.4H4 (antibody, V domains shown)
VH: QVHLKESGPGLVAPSQSLSITCTVSGFSLTDYGVSWIRQPPGKGLEWLGLIWGGGDTYYNSPLKSRLSIRKDNSKSQVFLKMNSLQTDDTAVYYCAKQRTLWGYDLYGMDYWGQGTSVTVSS
VL: ETTVTQSPASLSMAIGEKVTIRCITSTDIDVDMNWYQQKPGEPPKLLISQGNTLRPGVPSRFSSSGSGTDFVFIIENMLSEDVADYYCLQSDNLPLTFGAGTKLELKR
notes: as for B2
Turning to B10, in the experiment with recombinant human IL-1β [5], the “IC50 (M), MRC-5 bioassay (inhibition of IL-8 production)” value turned out to be 5.3e-10 M. The Kd was 213 pM with recombinant human IL-1β [6] and 261 pM in the experiment with recombinant human IL-1β [2]. Moreover, in the experiment with recombinant human IL-1β [4], the “IC50 (M), MRC-5 bioassay” value came to 6e-10 M.
